Experimental data reported in publication PMC12475115, “Arabidopsis MYB47 and MYB95 transcription factors regulate jasmonate-inducible ER-body formation”.

T1: GST-MYB95 (Arabidopsis thaliana, UniProt Q7DSY5 1-271)
T1 sequence: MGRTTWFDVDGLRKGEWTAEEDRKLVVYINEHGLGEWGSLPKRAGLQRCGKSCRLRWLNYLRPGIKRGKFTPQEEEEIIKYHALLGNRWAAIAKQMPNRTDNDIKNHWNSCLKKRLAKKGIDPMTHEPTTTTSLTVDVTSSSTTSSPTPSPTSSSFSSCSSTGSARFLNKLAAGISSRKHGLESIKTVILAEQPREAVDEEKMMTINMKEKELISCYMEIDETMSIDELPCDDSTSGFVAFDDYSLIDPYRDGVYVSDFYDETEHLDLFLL

T2: GST-MYB47 (Arabidopsis thaliana, UniProt Q6R0C2 1-267)
T2 sequence: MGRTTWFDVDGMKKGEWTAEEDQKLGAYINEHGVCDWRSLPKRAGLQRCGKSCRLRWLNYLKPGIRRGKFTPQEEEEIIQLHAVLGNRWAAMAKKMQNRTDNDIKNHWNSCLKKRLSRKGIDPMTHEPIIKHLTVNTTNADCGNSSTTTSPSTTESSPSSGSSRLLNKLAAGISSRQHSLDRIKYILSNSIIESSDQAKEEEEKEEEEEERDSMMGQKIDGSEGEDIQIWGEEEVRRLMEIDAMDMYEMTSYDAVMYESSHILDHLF

B1: pTSA1 probe (dsDNA)
DNA 1: GAATGAAATCCACGTTTAAGTTAGTTACAACGGTTT
DNA 2: AAACCGTTGTAACTAACTTAAACGTGGATTTCATTC
B2: pTSA1-m1 (box1 mutated) (dsDNA)
DNA 1: GAATGAAATCTTTCCCCAAGTTAGTTACAACGGTTT
DNA 2: AAACCGTTGTAACTAACTTGGGGAAAGATTTCATTC
B3: pTSA1-m2 (box2 mutated) (dsDNA)
DNA 1: GAATGAAATCCACGTTTAACCCCTTTACAACGGTTT
DNA 2: AAACCGTTGTAAAGGGGTTAAACGTGGATTTCATTC

Tests used:
[1] = target: T1, GST-MYB95; test: EMSA; 5 mM Mg2+; 10 mM Tris-HCl pH 7.5, 50 mM KCl, 1 mM DTT, 2.5% glycerol, 5 mM MgCl2, 0.1% IGEPAL CA-630, 0.05 ug/uL poly(dI-dC); 500 ng protein, probe 5 uM; competitor 20 min then probe 30 min at room temperature; conditions: protein: recombinant; tags: N-terminal GST (pDEST15); label: 5' biotin on strand 1 as probe; blunt
[2] = target: T2, GST-MYB47; test: as above; conditions: protein: recombinant; tags: N-terminal GST (pDEST15); label: 5' biotin on strand 1 as probe; blunt
[3] = target: T1, GST-MYB95; test: competition EMSA; 20-fold excess over pTSA1 probe; 10 mM Tris-HCl pH 7.5, 50 mM KCl, 1 mM DTT, 2.5% glycerol, 5 mM MgCl2, 0.1% IGEPAL CA-630, 0.05 ug/uL poly(dI-dC); 500 ng protein, probe 5 uM; competitor 20 min then probe 30 min at room temperature; conditions: protein: recombinant; tags: N-terminal GST (pDEST15); blunt
[4] = target: T2, GST-MYB47; test: as above; conditions: protein: recombinant; tags: N-terminal GST (pDEST15); blunt

Binder | binding result [1] | binding result [2] | binding result [3] | binding result [4]
B1 | binds | binds | – | –
B2 | – | – | binds | binds
B3 | – | – | no binding | no binding
